{"source": "patent CN106589116A", "about": "(INST MICROBIOLOGY CAS, dated 2017)", "binders": {"B1": {"name": "Z5 (antibody, V domains shown)", "VH": "QVQLQESGHRLVKPSETLSLTCTVSGGSISSDPYLWGWIRQPPGKGLEWIGSIYHSGSAYYNPSLKSRVTLSVDTSRNQFSLKVNSVTATDTAVYYCVEVAPPEKWGRGILVTVSS", "VL": "QSALTQPPSASGSPGQSVTISCTGTSSDVGGYNYVSWYQQHPGKAPKLMIYAVNKRPSGVPDRFSGSKSGNTASLTVSRLQDDDEADYYCSSYGGSNNILFGGGTKLTVLG", "notes": "also called 克隆Z5; 人源单克隆抗体Z5"}, "B2": {"name": "Z7 (antibody, V domains shown)", "V domain 1": "QVQLQESGPGLVKPSETLSLTCTVFGGSVNNPTNYWGWIRQSPGKGLEWIGSVYYTGINYYNPSLESRVTIAVVTSKNQFSLKLTSVTATDTAVYYCARHPRPETGYDFDYWGQGTLVTVSS", "V domain 2": "QSVLTQPPSVSAAPGQKVTISCSGSSSNIGNNYVSWYQQLPGTAPKLLLYDNNKRPSGTPDRFSGSKSGTSATLGIAGLQTGDEAVYHCATWDSSLSAEVFGGGTQVTVLG", "notes": "also called 克隆Z7; 人源单克隆抗体Z7"}, "B3": {"name": "Z6 (antibody, V domains shown)", "VH": "QVQLQESGPGLVKPSETLSLICTVSGGSISTRDYYWGWIRQTPGKGLEWIGSIYYSGGTYYSPSLKSRVTISVDTSKNQFSLKLRSVTAADTAVYYCARQWGNYFDHWGQGSLVTVSS", "VL": "DIVLTQSPSFLSASVGDRVTITCRASQGIDTYLAWYQQKPGKAPKLLIYGASTLQSGVPSRFSGSGSGTEFTLTISSLQPEDFATYYCQQLNNYHFTFGPGTKVDIKR", "notes": "also called 克隆Z6; 人源单克隆抗体Z6"}}}
{"biological_target": "ZIKV-E蛋白 (寨卡病毒E蛋白胞外区, C端6*His, 大肠杆菌表达复性) (Zika virus, UniProt A0A024B7W1 291-699)", "sequence (A0A024B7W1 291-699, tags left off)": "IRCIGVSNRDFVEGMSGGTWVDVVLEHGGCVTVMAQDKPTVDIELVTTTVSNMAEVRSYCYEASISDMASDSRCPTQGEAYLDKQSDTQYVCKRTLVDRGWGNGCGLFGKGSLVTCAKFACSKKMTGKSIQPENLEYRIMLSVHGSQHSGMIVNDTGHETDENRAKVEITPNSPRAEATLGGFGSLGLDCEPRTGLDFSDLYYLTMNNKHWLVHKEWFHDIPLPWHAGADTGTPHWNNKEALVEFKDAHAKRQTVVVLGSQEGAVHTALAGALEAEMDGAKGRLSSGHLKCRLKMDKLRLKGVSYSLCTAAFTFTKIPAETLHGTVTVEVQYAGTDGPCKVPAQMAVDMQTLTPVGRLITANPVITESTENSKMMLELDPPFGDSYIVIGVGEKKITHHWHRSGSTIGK", "experiment": "SPR, Biacore T100, antibody captured by anti-human IgG on CM5, ZIKV-E as analyte", "units": {"Kd": "nM"}}
{"binder": "B1", "Kd": 0.0399}
{"binder": "B2", "Kd": 0.2}
{"binder": "B3", "Kd": 0.0447}
